The experiment addresses myosin S2 tail domain (UniProt P12883). The experiment can be described thus: MST; Monolith NT.115; 100 nmol/L Alexa647-labeled protein fixed, partner titrated (which was labeled is not told); 20 mmol/L Mops pH 7, 1 mmol/L MgCl2, 50 mmol/L KCl, 1 mmol/L DTT, 0.05% Tween-20; various nucleotides, with and without F10.

As usually defined, the Kd is the constant that tells how readily two partners part at equilibrium. The low end stands for a tighter complex, the high end for a looser complex.

Sequence of myosin S2 tail domain (P12883 whole entry, the tested form may be a part): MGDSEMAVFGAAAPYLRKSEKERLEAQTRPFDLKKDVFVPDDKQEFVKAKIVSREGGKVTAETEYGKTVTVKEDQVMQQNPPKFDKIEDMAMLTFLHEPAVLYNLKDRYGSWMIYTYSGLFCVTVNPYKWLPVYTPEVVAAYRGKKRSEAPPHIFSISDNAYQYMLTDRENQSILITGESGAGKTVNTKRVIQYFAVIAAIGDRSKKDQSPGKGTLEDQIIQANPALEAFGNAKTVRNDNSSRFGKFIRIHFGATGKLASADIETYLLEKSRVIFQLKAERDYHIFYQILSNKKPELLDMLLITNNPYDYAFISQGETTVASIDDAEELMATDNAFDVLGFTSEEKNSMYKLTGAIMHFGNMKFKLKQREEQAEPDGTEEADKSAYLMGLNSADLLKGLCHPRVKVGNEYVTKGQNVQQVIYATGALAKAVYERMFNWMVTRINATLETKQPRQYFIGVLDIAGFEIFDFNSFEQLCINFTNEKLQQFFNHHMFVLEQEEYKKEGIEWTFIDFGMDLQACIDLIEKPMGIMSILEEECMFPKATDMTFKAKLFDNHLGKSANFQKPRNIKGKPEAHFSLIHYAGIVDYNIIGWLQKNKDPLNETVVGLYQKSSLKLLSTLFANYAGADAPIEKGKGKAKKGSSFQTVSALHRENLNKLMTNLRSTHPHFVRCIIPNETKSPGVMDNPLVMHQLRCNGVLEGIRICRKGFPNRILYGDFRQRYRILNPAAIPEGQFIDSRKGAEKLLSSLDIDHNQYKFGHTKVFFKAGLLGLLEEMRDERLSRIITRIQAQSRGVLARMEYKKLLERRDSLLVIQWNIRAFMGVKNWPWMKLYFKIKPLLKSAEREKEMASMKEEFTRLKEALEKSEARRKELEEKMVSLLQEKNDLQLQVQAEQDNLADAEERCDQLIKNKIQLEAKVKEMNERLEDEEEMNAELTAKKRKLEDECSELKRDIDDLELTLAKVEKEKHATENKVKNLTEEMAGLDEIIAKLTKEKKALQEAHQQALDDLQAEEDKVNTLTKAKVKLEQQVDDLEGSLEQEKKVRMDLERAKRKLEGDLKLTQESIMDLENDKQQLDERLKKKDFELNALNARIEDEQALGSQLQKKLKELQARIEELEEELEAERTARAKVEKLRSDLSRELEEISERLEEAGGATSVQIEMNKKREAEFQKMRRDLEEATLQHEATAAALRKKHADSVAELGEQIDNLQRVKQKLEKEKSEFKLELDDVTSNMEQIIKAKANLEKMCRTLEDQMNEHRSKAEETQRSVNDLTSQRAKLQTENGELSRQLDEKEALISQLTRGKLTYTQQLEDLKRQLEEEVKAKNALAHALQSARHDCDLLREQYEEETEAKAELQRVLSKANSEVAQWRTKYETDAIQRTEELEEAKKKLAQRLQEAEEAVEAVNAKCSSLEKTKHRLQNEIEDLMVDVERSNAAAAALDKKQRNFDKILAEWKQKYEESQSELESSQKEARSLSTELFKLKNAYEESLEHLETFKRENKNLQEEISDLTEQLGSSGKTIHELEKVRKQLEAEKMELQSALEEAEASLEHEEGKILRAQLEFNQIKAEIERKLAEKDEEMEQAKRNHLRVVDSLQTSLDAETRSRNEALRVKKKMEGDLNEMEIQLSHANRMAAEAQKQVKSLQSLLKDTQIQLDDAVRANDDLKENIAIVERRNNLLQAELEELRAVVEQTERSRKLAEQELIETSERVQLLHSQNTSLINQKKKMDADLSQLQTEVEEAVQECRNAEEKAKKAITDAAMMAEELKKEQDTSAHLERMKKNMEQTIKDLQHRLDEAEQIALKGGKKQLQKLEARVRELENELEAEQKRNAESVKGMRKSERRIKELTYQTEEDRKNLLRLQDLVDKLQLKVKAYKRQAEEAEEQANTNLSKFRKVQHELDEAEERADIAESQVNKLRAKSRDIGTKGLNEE

As to “bovine β-cardiac myosin S1 (from UniProt Q9BE39 1-1935; P85100 1-199) (domain or fragment)”, the Kd came out at 15 µM.

These data come from article PMC10673995, “Discovery of a novel cardiac-specific myosin modulator using artificial intelligence-based virtual screening” (Nature Communications, 2023).
